Target: Orfelia fultoni luciferase (Orfelia fultoni (endogenous in larvae))
Assay: native gel or EMSA; 6% Native-PAGE of the luciferase fraction from anion exchange, no SDS or mercaptoethanol, 25 mM Tris/192 mM glycine, ice-cooled; band shown by bioluminescence with hot extract; the luminescent ~220 kDa band was eluted and re-run on denaturing SDS-PAGE (single ~70 kDa band)

With Orfelia fultoni luciferase (enzyme) the stoichiometry N was 3.

Source: PMC7295969
